Experimental data taken from PMC6795539 (Nature medicine, 2019).
Where a chain is given by its changes, count along the chain named.

B1: NZM-mFc, variant of NZM in which the human Fc was replaced with the murine counterpart (antibody, V domains shown)
VH: QVQLVQSGAEVKKPGASVKVSCKASGFNIKDTYIHWVRQAPGQRLEWMGRIDPANGYTKYDPKFQGRVTITADTSASTAYMELSSLRSEDTAVYYCAREGYYGNYGVYAMDYWGQGTLVTVSS
VL: DIQMTQSPSSLSASVGDRVTITCKTSQDINKYMAWYQQTPGKAPRLLIHYTSALQPGIPSRFSGSGSGRDYTFTISSLQPEDIATYYCLQYDNLWTFGQGTKVEIK
B2: NZM variant var2 (light chain CDR2 modified), full human IgG4 (antibody, V domains shown)
VH: B1 VH
VL: B1 VL with S52K, A53G, L54N, P56S
B3: Natalizumab (NZM), humanized monoclonal IgG4 antibody to α4 integrins (antibody, V domains shown)
VH: B1 VH
VL: B1 VL
B4: NZM variant var4 (light chain CDR2 modified), full human IgG4 (antibody, V domains shown)
VH: B1 VH
VL: B1 VL with S52K, A53S, L54N, P56S
B5: NZM variant var3 (light chain CDR2 modified), full human IgG4 (antibody, V domains shown)
VH: B1 VH
VL: B1 VL with S52K, A53S, L54N
B6: NZM variant var1 (light chain CDR2 modified), full human IgG4 (antibody, V domains shown)
VH: B1 VH
VL: B1 VL with S52K, A53G, L54N

What follows are binders tested against T1, α4 integrin on the surface of T cells (Homo sapiens, UniProt P13612) (assay: flow cytometry on cells).

| Binder | binding result |
| --- | --- |
| B1 | binds |

Molecular target: T1, α4 integrin on the surface of T cells
Assay: flow cytometry on cells
Remark: another data set of the same source

| Binder | binding result |
| --- | --- |
| B2 | binds |
| B3 | binds |
| B4 | binds |
| B5 | binds |
| B6 | binds |
